Source: patent US20130289246A1 (VANDERBILT UNIVERSITY, published 2013)
Like-named read-outs stand apart in the source and are kept apart here.

Columns and labels:
[1] = biological target: T1, recombinant soluble trimeric 1918 H1 HA (A/South Carolina/1/1918, wild type) (Influenza A virus A/South …, UniProt Q9WFX3 18-529); assay: ELISA, supernate
[2] = biological target: T1, recombinant soluble trimeric 1918 H1 HA …; assay: ELISA, supernate; remark: listed apart in the source
[3] = biological target: T2, recombinant soluble 1968 H3 HA (A/Aichi/2/1968) (Influenza A virus A/Aichi/2/1968 (H3N2), UniProt P03437 17-530); assay: ELISA, supernate
[4] = biological target: T2, recombinant soluble 1968 H3 HA …; assay: ELISA, recombinant mAb
[5] = biological target: T2, recombinant soluble 1968 H3 HA …; assay: ELISA, supernate; remark: listed apart in the source
[6] = biological target: T1, recombinant soluble trimeric 1918 H1 HA …; assay: ELISA, supernate; remark: listed apart in the source
[7] = biological target: T2, recombinant soluble 1968 H3 HA …; assay: ELISA, supernate; remark: listed apart in the source
[8] = biological target: HA of A/South Carolina/1/1918 (H1N1), wild type, on VLP (Influenza A virus A/South …, UniProt Q9WFX3 18-566); assay: cell-based or functional assay
[9] = biological target: HA of A/swine/Iowa/15/1930 (H1N1) virus (Influenza A virus (H1N1)); assay: cell-based or functional assay
[10] = biological target: HA of A/Weiss/1943 (H1N1) virus (Influenza A virus (H1N1)); assay: cell-based or functional assay
[11] = biological target: HA of A/L3/1947 (H1N1) virus (Influenza A virus (H1N1)); assay: cell-based or functional assay
[12] = biological target: HA of A/New Jersey/11/1976 (H1N1) virus (Influenza A virus (H1N1)); assay: cell-based or functional assay
[13] = biological target: HA of A/USSR/92/1977 (H1N1) virus (Influenza A virus (H1N1)); assay: cell-based or functional assay
[14] = biological target: HA of A/New Caledonia/20/1999 (H1N1) virus (Influenza A virus (H1N1)); assay: cell-based or functional assay
[15] = biological target: HA of A/Brisbane/59/2007 (H1N1) virus (Influenza A virus (H1N1)); assay: cell-based or functional assay
[16] = biological target: HA of A/California/04/2009 (H1N1) virus (Influenza A virus (H1N1)); assay: cell-based or functional assay
[17] = biological target: T2, recombinant soluble 1968 H3 HA …; assay: ELISA, unconcentrated supernate

B1: mAb 6J24 (antibody, V domains shown)
VH: EVQLVESGGGLVQPGRSLRLSCVGSGFNFDGYAMQWVRQVPGKGLEWVSGISWHSDSTGYADSVRGRFTISRDNAKNSLYLQMDSLRPEDTAFYYCGKSIGHVGGSYRHPIDYWGQGTLVTVS
VL: DIQLTQSPSSLSASVGDRVTITCRASQGITDYLAWYQQKPGTIPKLLIYAASTLQSGVPSRFSGGGYGTDFTLTISSLQPEDVATYYCQKYNSAPLTFGGGTKVEIKR
OD [1]: 0.072 OD

B2: mAb 3E22 (antibody, V domains shown)
VH: EVQLVESGAEVKKPGASVKVSCKASGYTFSRYYIHWVRQAPGQELEWMGWINPDSGDTNYAQKFRGRVTMARDTSISTVYMELNSLRYDDTAVYFCARIIWSSSGMDVWGQGTTVTVS
VL: QSALTQPASVSGSPGQSITISCTGTSSDVGSYNLVSWYQQHPGKAPKLMIYEVSKRPSGVSNRFSGSKSGNTASLTISGLQAEDEADYYCHLYVGSSNWVFGGGTKLAVLG
OD [2]: 0.741 OD | OD [3]: 0.379 OD

B3: mAb 3N6 (recombinant) (antibody, V domains shown)
VH: QVQLQESGPGLVKPSETLSLTCSVSGGSINYYYWSWIRQPPGKGLECIGYISDTGRTYYNPSLRSRVTISVDTSKNQFSLNLTSMTAADTAVYYCARDPTGSRQKNAFDMWGQGTMVTVS
VL: AIQMTQSPSSLSASVGDRVTITCRASQNIRSYLNWYQQKPGKAPNLLIYGTTSLESGVPSRFSGSGSGTDFTLTISSLQPEDFATYYCQQSYHTPQTFGQGTKVEIKR
OD [4]: 0.069 OD

B4: mAb 10E15 (antibody, V domains shown)
VH: EVQLLESGGGVVQPGRSLRLSCAASGFTFRTYGMHWVRQAPGKGLEWVAVISHDGNLKYYGGSVKGRFTISRDNSKNALYLQMNSLRVDDTALYYCARGIGITDAFDIRGQGTMVVVS
VL: QSVLTQPPSVSAAPGQKVTISCSGSSSNIGKNYVSWYQQLPGTAPKLLIYDNDKRPSGIPDRFSGSKSGTSATLGITGLQTGDEADYHCGAWDSSLNGGVFGGGTKVTVLG
OD [5]: 0.074 OD

B5: mAb 5J8 (antibody, V domains shown)
VH: EVQLVESGPGLVKPSDILSLTCAVSGYSISSNYYWGWIRQPPGKGLEWIGSIYHSGSTYYKPSLESRLGISVDTSKNQFSLKLSFVSAADTAVYYCARHVRSGYPDTAYYFDKWGQGTLVTVS
VL: SYVLTQPPSVSVAPGETARISCGGNNIGTKVLHWYQQTPGQAPVLVVYDDSDRPSGIPERFSGSNSGNTATLTISRVEVGDEADYYCQVWDISTDQAVFGGGTKLTVLG
OD [6]: 0.262 OD | OD [7]: 0.078 OD | HAI activity [8]: 0.04 µg/mL | HAI activity [9]: 0.04 µg/mL | Neut titer [9]: < 0.025 µg/mL | HAI activity [10]: 5 µg/mL | Neut titer [10]: 10 µg/mL | HAI activity [11]: 0.08 µg/mL | Neut titer [11]: 0.1 µg/mL | HAI activity [12]: 0.32 µg/mL | HAI activity [13]: 0.63 µg/mL | Neut titer [13]: 0.2 µg/mL | HAI activity [14]: > 20 µg/mL | Neut titer [14]: > 20 µg/mL | HAI activity [15]: > 20 µg/mL | HAI activity [16]: 0.09 µg/mL | Neut titer [16]: 0.0017 µg/mL | binding result [17]: no binding
